This is an account of results in patent publication US20240287172A1 (SCIRHOM, published 2024).

One assay addresses T1, hiR2-FL-K536A-T7 (human, UniProt Q6PJF5 1-856).
T1 construct: on MEF-DKO cells
T1 sequence: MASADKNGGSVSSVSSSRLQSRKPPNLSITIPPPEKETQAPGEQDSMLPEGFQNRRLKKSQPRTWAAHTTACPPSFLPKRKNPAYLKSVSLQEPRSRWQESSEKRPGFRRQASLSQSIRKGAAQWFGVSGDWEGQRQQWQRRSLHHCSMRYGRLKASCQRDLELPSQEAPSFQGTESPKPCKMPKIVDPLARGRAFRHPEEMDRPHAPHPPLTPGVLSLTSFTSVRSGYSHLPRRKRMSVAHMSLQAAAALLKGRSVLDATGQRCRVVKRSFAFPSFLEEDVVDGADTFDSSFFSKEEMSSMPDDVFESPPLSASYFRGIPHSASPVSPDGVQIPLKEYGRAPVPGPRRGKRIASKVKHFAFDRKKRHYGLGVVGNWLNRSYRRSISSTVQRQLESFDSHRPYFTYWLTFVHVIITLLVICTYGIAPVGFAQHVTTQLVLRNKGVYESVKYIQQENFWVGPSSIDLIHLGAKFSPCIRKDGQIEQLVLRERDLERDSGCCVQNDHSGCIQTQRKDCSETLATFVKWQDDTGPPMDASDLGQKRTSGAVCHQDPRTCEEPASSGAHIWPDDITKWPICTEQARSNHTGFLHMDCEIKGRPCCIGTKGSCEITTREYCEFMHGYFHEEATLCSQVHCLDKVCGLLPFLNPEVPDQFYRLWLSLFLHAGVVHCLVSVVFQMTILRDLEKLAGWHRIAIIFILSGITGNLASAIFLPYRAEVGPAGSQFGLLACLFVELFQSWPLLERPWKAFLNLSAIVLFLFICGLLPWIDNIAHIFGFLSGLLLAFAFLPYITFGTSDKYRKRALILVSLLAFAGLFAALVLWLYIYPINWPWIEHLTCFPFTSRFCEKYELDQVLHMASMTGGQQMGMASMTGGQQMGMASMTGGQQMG
Put plainly: FACS on MEF-DKO cells expressing the variant, 3 µg/ml antibody. The method in brief:
(§1)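 Primary stain: antibody 3 μg/ml, 1 h on ice; controls buffer alone. Secondary: PE anti-mouse IgG F(ab′)2 1:100, 1 h on ice, light-protected. Washes at 4° C; read by flow cytometry.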

The next assay concerns the target T2, hiR2-FL-G587A-T7 (human, UniProt Q6PJF5 1-856).
T2 sequence: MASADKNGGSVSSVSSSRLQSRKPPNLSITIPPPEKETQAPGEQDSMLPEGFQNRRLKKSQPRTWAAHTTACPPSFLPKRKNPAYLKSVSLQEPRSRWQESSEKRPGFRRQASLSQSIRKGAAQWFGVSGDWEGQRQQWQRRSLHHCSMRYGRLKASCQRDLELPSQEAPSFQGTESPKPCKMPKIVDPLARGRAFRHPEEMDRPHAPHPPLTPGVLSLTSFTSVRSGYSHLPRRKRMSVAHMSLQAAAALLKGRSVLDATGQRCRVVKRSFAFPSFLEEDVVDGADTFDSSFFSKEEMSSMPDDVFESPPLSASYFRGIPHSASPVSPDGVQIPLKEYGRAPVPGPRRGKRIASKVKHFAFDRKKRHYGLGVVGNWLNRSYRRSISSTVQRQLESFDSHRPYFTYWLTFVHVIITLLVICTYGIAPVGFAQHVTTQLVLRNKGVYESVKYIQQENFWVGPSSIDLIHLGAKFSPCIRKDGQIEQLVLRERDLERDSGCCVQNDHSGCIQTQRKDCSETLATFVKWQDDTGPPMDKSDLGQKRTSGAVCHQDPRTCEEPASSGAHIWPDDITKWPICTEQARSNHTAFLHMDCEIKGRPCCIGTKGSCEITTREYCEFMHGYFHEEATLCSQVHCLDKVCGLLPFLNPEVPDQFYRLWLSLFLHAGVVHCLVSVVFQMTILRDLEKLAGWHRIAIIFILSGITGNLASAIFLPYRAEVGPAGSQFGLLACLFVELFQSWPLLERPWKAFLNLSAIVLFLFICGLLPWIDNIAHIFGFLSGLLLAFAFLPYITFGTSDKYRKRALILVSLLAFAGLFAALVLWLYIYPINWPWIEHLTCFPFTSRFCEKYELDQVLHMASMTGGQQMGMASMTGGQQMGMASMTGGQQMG
The description is as above. Put shortly: as §1

B1: antibody 5 (antibody, V domains shown)
VH: QVTLKESGPGILQPSQTLSLTCSFSGFSLSTFGMGVGWIRQPSGKGLEWLAHIWWDDEKYYNSALKSRLTISKATSKNQAFLKIANVDTADTATYYCARISNYGSNYWYFNVWGTGTTVTVSS
VL: QVVLTQSPALMSASPGEKVTMTCSAGSSVSCMYWYQQKPGSSPRVLIYDTSNLASGVPARFTGSGSGTSYSLTISRMEAEDAASYYCQQWNSYPLTFGAGTKLELK
notes: mouse IgG, kappa light chain; also called clone #5; purified antibody 5
B1: in the assay with hiR2-FL-K536A-T7, the “loss of binding vs wild type” value is not below 95%.

B2: antibody 44 (antibody, V domains shown)
VH: QVTLKESGPGILQPSQTLSLTCSFSGFSLSTFGMGVGWIRQPSEKGLEWLAHIWWDDDKYYNPALKSRLTISKDTSKNQIFLKITNVDTAETATYYCSRIGNYGSNYWYFDVWGTGTTVTVSS
VL: QIVLTQSPAVMSASPGEKVTMTCTASSSVYYMYWYQQTPGSSPRLLIYDTSNLASGVPVRFSGSGSGTSYSLTISRMEAEDAATYYCQQWNTYPLTFGAGTKLELK
notes: mouse IgG, kappa light chain; also called clone #44; purified antibody 44
Turning to B2, the “loss of binding vs wild type” value with hiR2-FL-G587A-T7 was not below 30%.

B3: antibody 43 (antibody, V domains shown)
VH: QVALKESGPGILQPSQTLSLTCSFSGFSLSTFGMGVGWIRQSSGKGLEWLANIWWDDDKYYNPALKSRLTISKDASKNQAFLKIANVDTADTATYYCARIGNYGSNYWYFDVWGTGTTVTVSS
VL: QIVLTQSPAIMSASPGERVTMTCSANSRISYMYWYQQKPGSSPRLLIYDTSNLASGVPVRFSGSGSGTSYSLTISRMEAEDAATYNCQQWSSYPLTFGAGTKLELK
notes: mouse IgG, kappa light chain; also called clone #43; purified antibody 43
In the case of B3, the “loss of binding vs wild type” value is not below 60% with hiR2-FL-K536A-T7 and not below 30% in the assay with hiR2-FL-G587A-T7.

B4: antibody 48 (antibody, V domains shown)
VH: QVQLQQSGTELVRPGTSVKVSCKASGYAFTNYLIEWVKQRPGQGLEWIGVINPGSGFTKYNEKFKGKATLTADKSSSTVYMHLSSLTSEDSAVYFCARGLYRAMDYWGQGTSVTVSS
VL: DIQMTQSPASQSASLGESVTITCLASQTIATWLAWYQQKPGKSPQLLIYGATTLADGVPSRFSGGGSGTKFSFKISSLQAEDFVSYYCQQLYSTPYTFGGGTKLEIK
notes: mouse IgG, kappa light chain; also called clone #48; purified antibody 48
In the case of B4, the “loss of binding vs wild type” value with hiR2-FL-K536A-T7 and with hiR2-FL-G587A-T7 was not below 30% each time.

B5: antibody 50 (antibody, V domains shown)
VH: QVQLQQSGAELVRPGASVKVSCKASGYAFSNYLIEWVKQRPGQGLEWIGVINPGSGFTKYNEKFKGKATLTADKSSSTAYMQLSSLTSEDSAVYFCARGLYRAMDYWGQGTSVTVSS
VL: DIQMTQSPASQSASLGESVTITCLASQTIGTWLAWYQQKPGKSPQLLIYAAASLADGVPSRFSGGGSGTKFSFKISSLQAEDFVNYYCQQIYSTPYTFGGGTKLEIK
notes: mouse IgG, kappa light chain; also called clone #50; purified antibody 50
In the case of B5, in the assay with hiR2-FL-G587A-T7, the “loss of binding vs wild type” value was not below 60%.

B6: antibody 16 (antibody, V domains shown)
VH: QVTLKESGPGILQPSQTLSLTCSFSGFSLSTFALGVGWIRQPSGRGLEWLAHIWWDDDKYYNPALKSRLTISKDTSKNHVFLKIANVDTADTATYYCARITTYYYGMDYWGQGTSVTVSS
VL: DIVLSQSPATLSVTPGDSVSLFCRASQSIGNHLHWYQQESHASPRLLIKYASQSISGIPSRFSGSGSGTDFTLSINSVETEDFGMYFCQQSYNWPLTFGAGTKLELK
notes: mouse IgG, kappa light chain; also called clone #16; purified antibody 16
As for B6, the “loss of binding vs wild type” value with hiR2-FL-K536A-T7 was not below 60%.

B7: antibody 3 (antibody, V domains shown)
VH: QVTLKESGPGILQPSQTLSLTCSFSGFSLTTFAMGIGWVRQPSGKGLEWLAHIWWDGEKYNNPVLKSRLTISKDTSKNQVFLRIANVDTPDTATYYCARISSIYYIIDNWGQGTSVTVSS
VL: DIVLTQSPATLSVTPGHSVSLSCRASQSISNNLHWYQKKSHESPRLLIKYVSQSISGIPSRFSGSGSGTDFTLSINSVETEDFGMYFCQQSYNWPLTFGAGTKLELK
notes: mouse IgG, kappa light chain; also called clone #3; purified antibody 3
For the molecule B7, the “loss of binding vs wild type” value with hiR2-FL-K536A-T7 was not below 60%.
